Assay results reported in the supplement of paper PMC11908140.

B1: library; numbered along this chain (parent)
chain: MRKPRAAVGSGHRKQAASQEGRQKHAKNNSQAKPSACDGLARQPEEVVLQASVSSYHLFRDVAEVTAFRGSLLSWYDQEKRDLPWRRRAEDEMDLDRRAYAVWVSEVMLQQTQVATVINYYTGWMQKWPTLQDLASASLEEVNQLWAGLGYYSRGRRLQEGARKVVEELGGHMPRTAETLQQLLPGVGRYTAGAIASIAFGQATGVVDGNVARVLCRVRAIGADPSSTLVSQQLWGLAQQLVDPARPGDFNQAAMELGATVCTPQRPLCSQCPVESLCRARQRVEQEQLLASGSLSGSPDVEECAPNTGQCHLCLPPSEPWDQTLGVVNFPRKASRKPPREESSATCVLEQPGALGAQILLVQRPNSGLLAGLWEFPSVTWEPSEQLQRKALLQELQRWAGPLPATHLRHLGEVVHTFSHIKLTYQVYGLALEGQTPVTTVPPGARWLTQEEFHTAAVSTAMKKVFRVYQGQQPGTCMGSKRSQVSSPCSRKKPRMGQQVLDNFFRSHISTDAHSLNSAAQ

Variants of: B1
Assay: 8OG:A repair function score (normalized; synonymous = 0, nonsense = -1) (normalized log-likelihood score); higher = more repair activity (WT-like)
Conditions: with 8OG:A DNA repair reporter (GFP) in HEK-293 MUTYH KO cells
Summary of the method: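 Lentiviral MUTYH cDNA NNN codon-scan libraries were expressed in MUTYH knockout HEK-293 cells with 10 pg/ml doxycycline, and the cells received an 8OG:A GFP repair reporter together with mCherry. At 72 h, viable mCherry+ cells went into GFP+ (repair) or GFP− bins, three replicates per tile, before tile amplicons were sequenced. A repair function score was then built from per-tile Rosace fitness scores, anchored on the synonymous and nonsense distributions. Synonymous medians sat at 0 and nonsense at -1, and variants under 300 counts per million at the start were left out.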
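Further: cells sorted at 72 h after reporter transfection.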

First: MRKPRAAVGSGHRKQAASQEGRQKHAKNNSQAKPSACDGLARQPEEVVLQASVSSYHLFRDVAEVTAFRGSLLSWYDQEKRDLPWRRRAEDEMDLDRRADAVWVSEVMLQQTQVATVINYYTGWMQKWPTLQDLASASLEEVNQLWAGLGYYSRGRRLQEGARKVVEELGGHMPRTAETLQQLLPGVGRYTAGAIASIAFGQATGVVDGNVARVLCRVRAIGADPSSTLVSQQLWGLAQQLVDPARPGDFNQAAMELGATVCTPQRPLCSQCPVESLCRARQRVEQEQLLASGSLSGSPDVEECAPNTGQCHLCLPPSEPWDQTLGVVNFPRKASRKPPREESSATCVLEQPGALGAQILLVQRPNSGLLAGLWEFPSVTWEPSEQLQRKALLQELQRWAGPLPATHLRHLGEVVHTFSHIKLTYQVYGLALEGQTPVTTVPPGARWLTQEEFHTAAVSTAMKKVFRVYQGQQPGTCMGSKRSQVSSPCSRKKPRMGQQVLDNFFRSHISTDAHSLNSAAQ [Y100D]
Second: MRKPRAAVGSGHRKQAASQEGRQKHAKNNSQAKPSACDGLARQPEEVVLQASVSSYHLFRDVAEVTAFRGSLLSWYDQEKRDLPWRRRAEDEMDLDRRAYAVWVSEVMLQQTQVATVINYYTGWMQKWPTLQDLASASLEEVNQLWAGLGYYSRGRRLQEGARKVVEELGGHMPRTAETLQQLLPGVGRYTAGAIASIAFGQATGVVDGNVARVLCRVRAIGADPSSTLVSQQLWGLAQQLVDPARPGDFNQAAMELGATVCTPQRPLCSQCPVESLCRARQRVEQEQLLASGSLSGSPDVEECAPNTGQCHLCLPPSEPWDQTLGVVNDPRKASRKPPREESSATCVLEQPGALGAQILLVQRPNSGLLAGLWEFPSVTWEPSEQLQRKALLQELQRWAGPLPATHLRHLGEVVHTFSHIKLTYQVYGLALEGQTPVTTVPPGARWLTQEEFHTAAVSTAMKKVFRVYQGQQPGTCMGSKRSQVSSPCSRKKPRMGQQVLDNFFRSHISTDAHSLNSAAQ [F330D]
The “8OG:A repair function score” value of the first is lower: -1.79 for the first, -1.15 for the second.

First: MRKPRAAVGSGHRKQAASQEGRQKHAKNNSQAKPSACDGLARQPEEVVLQASVSSYHLFRDVAEVTAFRGSLLSWYDQEKRDLPWRRRAEDEMDLDRRAYAVWVSEVMLQQTQVATVINYYTGWMQKWPTLQDLASASLEEVNQLWAGLGYYSRGRRLQEGARKVVEELGGHMPRTAETLQQLLPGVGRYTAGAIASIAFGQATGVVDGNVARVLCRVRAIGADPSSTLVSQQLWGLAQQLVDPARPGDFNQAAMELGATVCTPQRPLCSQCPVESLCRARQRVEQEQLLASGSLSGSPDVEECAPNTGQCHLCLPPSEPWDQTLGVVNFPRKASRKPPREESSATCVLEQPGALGAQILLVQRPNSGLLAGLWEFPSVTWEPSEQLQRKALLQELQRWAGPLPATHLRHLGEVVHTFSHIKLTYQVYGLALEGQTPVTTVPPGARWLTQEEFHTAAVSTAMKKVFRVYQGQQPGTCMGSKRSQVSSPCSRKKPRMGQQVLDNFFRSHISTDAHSLASAAQ [N517A]
Second: MRKPRAAVGSGHRKQAASQEGRQKHAKNNSQAKPSACDGLARQPEEKVLQASVSSYHLFRDVAEVTAFRGSLLSWYDQEKRDLPWRRRAEDEMDLDRRAYAVWVSEVMLQQTQVATVINYYTGWMQKWPTLQDLASASLEEVNQLWAGLGYYSRGRRLQEGARKVVEELGGHMPRTAETLQQLLPGVGRYTAGAIASIAFGQATGVVDGNVARVLCRVRAIGADPSSTLVSQQLWGLAQQLVDPARPGDFNQAAMELGATVCTPQRPLCSQCPVESLCRARQRVEQEQLLASGSLSGSPDVEECAPNTGQCHLCLPPSEPWDQTLGVVNFPRKASRKPPREESSATCVLEQPGALGAQILLVQRPNSGLLAGLWEFPSVTWEPSEQLQRKALLQELQRWAGPLPATHLRHLGEVVHTFSHIKLTYQVYGLALEGQTPVTTVPPGARWLTQEEFHTAAVSTAMKKVFRVYQGQQPGTCMGSKRSQVSSPCSRKKPRMGQQVLDNFFRSHISTDAHSLNSAAQ [V47K]
The “8OG:A repair function score” value of the first is lower: -0.00673 for the first, 0.00868 for the second.

Compared with MRKPRAAVGSGHRKQAASQEGRQKHAKNNSQAKPSACDGLARQPEEVVLQASVSSYHLFRDVAEVTAFRGSLLSWYDQEKRDLPWRRRAEDEMDLDRRAYAVWVSEVMLQQTQVATVINYYTGWMQKWPTLQDLASASLEEVNQLWAGLGYYSRGRRLQEGARKVVEELGGHMPRTAETLQQLLPGVGRYTAGAIASIAFGQATGVVDGNVARVLCRVRAIGADPSSTLVSQQLWGLAQQLVDPARPGDFNQAAMELGATVCTPQRPLCSQCPVESLCRARQRVEQEQLLASGSLSGSPDVEECAPNTGQCHLCLPPSEPWDQTLGVVNFPRKASRKPPREESSATCVLEQPGALGAQILLVARPNSGLLAGLWEFPSVTWEPSEQLQRKALLQELQRWAGPLPATHLRHLGEVVHTFSHIKLTYQVYGLALEGQTPVTTVPPGARWLTQEEFHTAAVSTAMKKVFRVYQGQQPGTCMGSKRSQVSSPCSRKKPRMGQQVLDNFFRSHISTDAHSLNSAAQ [Q363A], MRKPRAAVGSGHRKQAASQEGRQKHAKNNSQAKPSACDGLARQPEEVVLQASVSSYHLFRDVAEVTAFRGSLLSWYDQEKRDLPWRRRAEDEMDLDRRAYAVWVSEVMLQQTQVATVINYYTGWMQKWPTLQDLASASLEEVNQLWAGLGYYSRGRRLQEGARKVVEELGGHMPRTAETLQQLLPGVGRYTAGAIASIAFGQATGVVDGNVARVLCRVRAIGADPSSTLVSQQLWGLAQQLVDPARPGDFNQAAMELGATVCTPQRPLCSQCPVESLCRARQRVEQEQLLASGSLSGSPDVEECAPNTGQCHLCLPPSEPWDQTLGVVNFPRKASRKPPREESSATCVLEQPGALGAQILLVQRPNSGLLAGLWEFPSVTWEPSEQLQRKALLQELQRWAGPLPATHLRHLGEVVHTFSHIKLTYQVYGLALDGQTPVTTVPPGARWLTQEEFHTAAVSTAMKKVFRVYQGQQPGTCMGSKRSQVSSPCSRKKPRMGQQVLDNFFRSHISTDAHSLNSAAQ [E433D] is lower in “8OG:A repair function score” value: -0.167 for the first, -0.241 for the second.
